Assay results as given in patent US20100022402A1, “Methods and Compositions for the In Vitro High-Throughput Detection of Protein/Protein Interactions” (priority 2004, published 2010).

Experiments:
[1] = biological target: DcDL1 lambda phage displaying gpD-c-myc fusion protein (bacteriophage lambda) (UniProt P03712); experiment: bio-panning in 9E10-coated wells, reference DL1 phage
[2] = biological target: Lambda phage displaying SS1 scFv (DcSS1DL1), gpD-scFv-c-myc fusion protein (bacteriophage lambda) (UniProt P03712); experiment: phage ELISA on anti-c-myc-coated plates, reference DcDL1
[3] = biological target: DcDL1 lambda phage displaying gpD-c-myc fusion protein (bacteriophage lambda) (UniProt P03712); experiment: bio-panning of DcDL1 SCO and DCO phage in 9E10-coated wells
[4] = biological target: λD-Ubiquitin display phage (gpD fused to Ubiquitin) (bacteriophage lambda) (UniProt P03712); experiment: apparent KD from titration of λD-Cue:λD-Ubiquitin co-infection by free protein
[5] = biological target: λD-CUE display phage (gpD fused to the CUE domain of Vps9p) (bacteriophage lambda) (UniProt P03712); experiment: as above
[6] = biological target: λD-CUE display phage (gpD fused to the CUE domain of Vps9p) (bacteriophage lambda) (UniProt P03712); experiment: competition: free protein titrates λD-CUE:λD-Ubiquitin co-infection (MOI 0.04), loss of double resistant multilysogens
[7] = biological target: λD-Ubiquitin display phage (gpD fused to Ubiquitin) (bacteriophage lambda) (UniProt P03712); experiment: cell-based or functional assay

Sequence of free wild type CUE protein (wtCUE, 50 amino acids) (P54787 402-451 limits assumed): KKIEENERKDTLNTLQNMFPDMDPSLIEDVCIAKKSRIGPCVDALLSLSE

Question: How did the fold recovery over DL1 phage [1] turn out when Anti-c-myc mAb, 9E10 (antibody) was run?
Answer: > 200 fold

Question: And the fold less binding than DcDL1 [2]?
Answer: 30 times less

Question: And the recovery of phages (percent of phages added) [3]?
Answer: 2%

Question: For “free wild type CUE protein (wtCUE, 50 amino acids) (from UniProt P54787 402-451)”, which Kd [4] is on record?
Answer: 2 nM

Question: How did the Kd [5] turn out when “free wild type Ubiquitin protein (wtUbiquitin)” was run?
Answer: 20 nM

Question: And the IC50 [6]?
Answer: 3 nM

Question: How did the Cml^r/Kan^r double resistant lysogens at an MOI of 0.008 (8×10^5 phages infecting 1×10^8 cells) [7] turn out when “λD-CUE display phage (gpD fused to the CUE domain of Vps9p) (from UniProt P03712 1-110; P54787 402-451)” was run?
Answer: 150 lysogens

Question: What about the MOI at which double resistant multilysogens begin to contribute to the stable lysogen population [7] of the same substance?
Answer: 0.0001 MOI

Question: And the MOI at which formation of double resistant multilysogens begins [7]?
Answer: 0.03 MOI

Question: And the maximum saturation point of double resistant multilysogens (% of the available cells) [7]?
Answer: 25
